The values that follow come from publication PMC7529148 (Nature structural & molecular biology, 2020).

To fix the notation:
B1: ClpP (enzyme)
chain: not shown
B2: ClpA (enzyme, E. coli, UniProt P0ABH9 1-758, looked up)
chain: MLNQELELSLNMAFARAREHRHEFMTVEHLLLALLSNPSAREALEACSVDLVALRQELEAFIEQTTPVLPASEEERDTQPTLSFQRVLQRAVFHVQSSGRNEVTGANVLVAIFSEQESQAAYLLRKHEVSRLDVVNFISHGTRKDEPTQSSDPGSQPNSEEQAGGEERMENFTTNLNQLARVGGIDPLIGREKELERAIQVLCRRRKNNPLLVGESGVGKTAIAEGLAWRIVQGDVPEVMADCTIYSLDIGSLLAGTKYRGDFEKRFKALLKQLEQDTNSILFIDEIHTIIGAGAASGGQVDAANLIKPLLSSGKIRVIGSTTYQEFSNIFEKDRALARRFQKIDITEPSIEETVQIINGLKPKYEAHHDVRYTAKAVRAAVELAVKYINDRHLPDKAIDVIDEAGARARLMPVSKRKKTVNVADIESVVARIARIPEKSVSQSDRDTLKNLGDRLKMLVFGQDKAIEALTEAIKMARAGLGHEHKPVGSFLFAGPTGVGKTEVTVQLSKALGIELLRFDMSEYMERHTVSRLIGAPPGYVGFDQGGLLTDAVIKHPHAVLLLDEIEKAHPDVFNILLQVMDNGTLTDNNGRKADFRNVVLVMTTNAGVRETERKSIGLIHQDNSTDAMEEIKKIFTPEFRNRLDNIIWFDHLSTDVIHQVVDKFIVELQVQLDQKGVSLEVSQEARNWLAEKGYDRAMGARPMARVIQDNLKKPLANELLFGSLVDGGQVTVALDKEKNELTYGFQSAQKHKAEAAH

Series [1] concerns the molecule itself. Kind of series: cryo-EM structure.
Series [2] has as its target B2. Kind of series: cryo-EM structure.

The stoichiometry N is a count of units in the complex or per binding partner. B1: in series [1], the “stoichiometry N” value turned out to be 14. Also, in series [2], the binding result is recorded as “binds”.

With B2, the “stoichiometry N” value in series [1] was found to be 6.
